Assay results taken from US20230357447A1 (JANUX THERAPEUTICS, published 2023).

Legend:
[1] = target: T1, Anti-CD28 scFv (VH-linker 1-VL) (biotinylated for capture on neutravidin plates); assay: phage ELISA, scFv captured on plate;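 also: crude clonal phage supernatants added to wells preincubated with soluble CD28 or with blocking buffer only, bound phage read out by HRP-linked anti-M13 antibody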
Procedure: (§1) Clonal phage were harvested as crude supernatants and screened via standard enzyme linked immunosorbent assays (ELISAs). […] Prior to the addition of clonal phage, wells were incubated with blocking buffer and CD28 soluble protein or blocking buffer alone. Without washing or aspirating, clonal phage supernatants were then added to the wells and incubated for a short time. Wells were then washed followed by detection of bound phage using a horse radish peroxidase conjugated anti-M13 antibody.

[2] = target: T1, Anti-CD28 scFv (VH-linker 1-VL); assay: phage ELISA, scFv captured on plate, competitor soluble CD28;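 also: crude clonal phage supernatants added to wells pre-incubated with soluble CD28 or with blocking buffer only as control, bound phage read out with HRP-linked anti-M13 antibody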
Procedure: as §1

T1 sequence (scFv, as listed by the source): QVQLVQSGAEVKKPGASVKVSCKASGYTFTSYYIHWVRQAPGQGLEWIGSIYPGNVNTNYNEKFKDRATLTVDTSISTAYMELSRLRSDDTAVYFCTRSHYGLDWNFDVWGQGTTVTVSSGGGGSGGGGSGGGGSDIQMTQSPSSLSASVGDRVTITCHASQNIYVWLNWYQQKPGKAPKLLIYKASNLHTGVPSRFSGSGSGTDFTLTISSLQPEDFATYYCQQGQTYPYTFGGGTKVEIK

| Binder | Phage binding ELISA CD28 scFv signal [1] | Phage binding ELISA CD28 scFv signal in presence of CD28 [2] |
| --- | --- | --- |
| MDWCPRSLWSYCFH [Phage-157] | 1.33 | 0.152 |
| MDWCPPYLWYECFA [Phage-172] | 0.692 | 0.094 |
| MDWCPRSLWNVCFF [Phage-141] | 2.13 | 0.356 |
| MDWCPVILWDFCFN [Phage-142] | 2.03 | 0.173 |
| MNWCPSHLWHMCYF [Phage-171] | 0.702 | 0.192 |
| MNWCPSDLWHLCFN [Phage-170] | 0.739 | 0.131 |
| MDWCPKHLWNECFN [Phage-174] | 0.663 | 0.105 |
| MDWCPFYLWDECFL [Phage-165] | 1.02 | 0.141 |
| MDWCPRHLWNVCFS [Phage-150] | 1.61 | 0.176 |
| MDWCPRHMWNVCFS [Phage-204] | 2.25 | 0.13 |
| MSWCPQDLWHVCFN [Phage-167] | 0.86 | 0.112 |
| MHWCPEYLWNECFA [Phage-148] | 1.69 | 0.092 |
| MDWCPRDMWAECFF [Phage-190] | 2.69 | 2.26 |
| MDWCPKFLWDLCFA [Phage-164] | 1.07 | 0.139 |
| MDWCPAYLWAECFS [Phage-175] | 0.64 | 0.12 |
| MYWCPRDLWDVCFN [Phage-181] | 0.512 | 0.102 |
| LDWCPLNLWDLCYF [Phage-143] | 2.03 | 0.095 |
| MDWCPVSLWDHCFN [Phage-177] | 0.616 | 0.1 |
| MDWCPKHLWHQCFH [Phage-156] | 1.35 | 0.108 |
| MDWCPKHLWIECFA [Phage-145] | 1.98 | 0.132 |
| MHWCPLHLWNECYH [Phage-155] | 1.37 | 0.113 |
| MDWCPKDLWHECFN [Phage-168] | 0.762 | 0.1 |
| MDWCPRHLWSECFY [Phage-146] | 1.92 | 0.199 |

| Binder | Phage binding ELISA CD28 scFv signal [1] | Phage binding ELISA CD28 scFv signal in presence of CD28 [2] |
| --- | --- | --- |
| MFWCPRYLWHECFN [Phage-163] | 1.08 | 0.175 |
| MDWCPSYLWDQCFF [Phage-188] | 0.083 | 0.079 |
| MDWCPWILWNECFN [Phage-179] | 0.581 | 0.137 |
| MHWCPRSLWNECYF [Phage-182] | 0.456 | 0.115 |
| MDWCPMNLWSECFN [Phage-173] | 0.67 | 0.124 |
| DVWCPKYMWSLCFN [Phage-192] | 2.53 | 0.418 |
| QDWCPTYLWHHCFN [Phage-186] | 0.123 | 0.122 |
| MDWCPRHLWYACFN [Phage-144] | 2.01 | 0.159 |
| MDWCPRDMWYECFN [Phage-191] | 2.56 | 0.235 |
| MDWCPMDMWVNCFN [Phage-193] | 2.52 | 0.277 |
| MHWCPRALWHECFN [Phage-160] | 1.18 | 0.144 |
| IGKLTLCLNADLVI [Phage-187] | 0.116 | 0.1 |
| MHWCPINLWNECFS [Phage-184] | 0.316 | 0.098 |
| MDWCPSDLWHECFH [Phage-176] | 0.629 | 0.164 |
| VDWCPRYLWHVCYN [Phage-189] | 0.065 | 0.061 |
| MNWCPTDLWHECFN [Phage-162] | 1.09 | 0.095 |
| IDWCPRDLWALCFN [Phage-183] | 0.37 | 0.129 |
| MDWCPRYLWTECFF [Phage-158] | 1.26 | 0.244 |
| MDFCPISLWHECFF [Phage-151] | 1.58 | 0.129 |
| MDWCPKYLWDKCFH [Phage-152] | 1.54 | 0.109 |
| MAWCPMNLWDQCFF [Phage-159] | 1.2 | 0.145 |
| MHWCPRDLWVVCFN [Phage-147] | 1.83 | 0.112 |
